Source: patent US20040229797A1

Molecular target: HA-tagged Filamin 1 (HA-Filamin 1)
Assay: cell-based or functional assay

relative amount of recombinant Filamin 1 and GFP: 1.8
Substance: S-FILIP (short form Filamin-interacting protein) (from UniProt Q8K4T4 248-965)
